The target of this test is T1, hB7-1-Fc (human, UniProt P33681 35-242).
T1 construct: human B7-1 (CD80), recombinant Fc fusion; also called rhB7-1; source: bought: R&D Systems
T1 sequence (looked up): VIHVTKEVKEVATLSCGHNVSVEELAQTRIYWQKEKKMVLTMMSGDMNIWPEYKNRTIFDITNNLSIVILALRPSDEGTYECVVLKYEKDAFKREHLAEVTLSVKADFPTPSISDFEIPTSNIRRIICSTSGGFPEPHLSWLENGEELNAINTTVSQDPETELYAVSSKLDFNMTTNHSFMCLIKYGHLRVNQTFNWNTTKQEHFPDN
Kind of test: BLI; ForteBio Octet; tested 'in a similar way' to the ICOS antibodies (there: antibody loaded on biosensors at 10 ug/mL, Fc protein in solution, dissociation in kinetics buffer: PBS with 0.1% BSA, 0.05% sodium azide, 0.02% Tween-20; global 1:1 fit); which partner was loaded is not said for this experiment. The settings on record: both partners purified. (In BLI a coated tip is dipped into the sample, and binding shifts an interference pattern.)

B1: mCD28-Fc (Fc fusion, mouse, UniProt P31041 20-150, looked up)
chain: NKILVKQSPLLVVDSNEVSLSCRYSYNLLAKEFRASLYKGVNSDVEVCVGNGNFTYQPQFRSNAEFNCDGDFDNETVTFRLWNLHVNHTDIYFCKIEFMYPPPYLDNERSNGTIIHIKEKHLCHTQSSPKL
notes: mouse CD28, recombinant Fc fusion; source: bought: R&D Systems
As usually defined, the Kd is the free concentration of one partner at which half of the binding sites on the other are occupied at equilibrium, for simple one-to-one binding. Molecule B1 gave a Kd of 14 nM. That is a double-digit nanomolar value.

(Values after PMC7514066, “ICOS agonism by JTX-2011 (vopratelimab) requires initial T cell priming and Fc cross-linking for optimal T cell activation and anti-tumor immunity in preclinical models” (PLoS ONE, 2020).)
